Data on four compounds can be found in publication PMC5407770, “Pyridoxal phosphate synthases PdxS/PdxT are required for Actinobacillus pleuropneumoniae viability, stress tolerance and virulence” (PLoS ONE, 2017).

The target of series [1] is T1, PdxS (Actinobacillus pleuropneumoniae, UniProt B3GXB6).
T1 construct: full-length ORF (888 bp), pET22b(+) NdeI/XhoI, His6-tag kept, E. coli BL21(DE3); PdxS alone, without PdxT
Description: PLP formation assay, OD414. In kind it is biochemical. Conditions: 50 mM Tris-HCl pH 8.0, 37°C, PdxS alone, 10 mM ammonium sulfate in place of glutamine.

Series [2] relates to O=CC(O)COP(=O)(O)O. Description: purified protein. Conditions: 50 mM Tris-HCl pH 8.0, 37°C, PdxS + PdxT mixture, co-substrates ribose 5-phosphate and glutamine, glyceraldehyde 3-phosphate 0–1.0 mM (DL form per methods).
Series [3] concerns NC(=O)CC[C@H](N)C(=O)O. In words: purified protein. To be noted: 50 mM Tris-Cl pH 8.0, 37°C, PdxS + PdxT mixture, glutamine 0–15 mM.

T1 sequence (B3GXB6 whole entry): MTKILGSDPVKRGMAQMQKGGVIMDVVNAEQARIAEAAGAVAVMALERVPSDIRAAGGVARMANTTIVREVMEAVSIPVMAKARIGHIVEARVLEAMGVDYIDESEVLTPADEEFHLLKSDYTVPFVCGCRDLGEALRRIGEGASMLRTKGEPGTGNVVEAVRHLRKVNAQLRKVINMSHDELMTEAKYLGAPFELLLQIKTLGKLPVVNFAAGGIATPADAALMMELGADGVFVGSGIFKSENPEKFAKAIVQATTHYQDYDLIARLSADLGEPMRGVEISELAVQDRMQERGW

`O=CC(O)COP(=O)(O)O` (racemic) [glyceraldehyde 3-phosphate]: in series [1] (0.5 mM ribose 5-phosphate), the “PLP formation assay, OD414” value was “the individual PdxS could produce PLP in the addition of ammonium”.

With `O=P(O)(O)OC[C@H]1OC(O)[C@H](O)[C@@H]1O` (stereo partly drawn) [ribose 5-phosphate], the “PLP formation assay, OD414” value in series [1] (1 mM DL-glyceraldehyde 3-phosphate) is on record as “the individual PdxS could produce PLP in the addition of ammonium”.

As a reminder, the Km is the concentration of substrate that gives half-maximal velocity. For orientation: kcat means the number of substrate molecules converted per active site and unit of time at saturation. Take “PLP synthase PdxS and PdxT (PLP synthesis activity) (Actinobacillus pleuropneumoniae serovar 7 str. AP76)”: in series [2], the Km was found to be 175.7 ± 23.0 µM and the kcat amounted to 0.000383 ± 1.83e-05 s⁻¹.

Take “PdxS and PdxT (PLP synthase; glutaminase activity of PdxT with PdxS) (Actinobacillus pleuropneumoniae serovar 7 str. AP76)”: in series [3], the Km was 1720 ± 140 µM and the kcat was 0.102 ± 0.00233 s⁻¹.
